One substance from article PMC4188261 can be followed below.

For this experiment, the target named is Burkholderia mallei BmaI1 acyl-homoserine lactone synthase (Burkholderia mallei ATCC23344). Kind of experiment: steady-state enzyme kinetics.

“octanoyl-acyl carrier protein (E. coli ACP) (from UniProt P0A6A8 1-78) (natural protein)” came in with a Kd of 125 nM. That is a sub-micromolar value.
